Sequences and labels used below:
B1: Disintegrin and metalloproteinase domain-containing protein 22 (Homo sapiens), Q9P0K1-1 (parent)
chain: MQAAVAVSVPFLLLCVLGTCPPARCGQAGDASLMELEKRKENRFVERQSIVPLRLIYRSGGEDESRHDALDTRVRGDLGGPQLTHVDQASFQVDAFGTSFILDVVLNHDLLSSEYIERHIEHGGKTVEVKGGEHCYYQGHIRGNPDSFVALSTCHGLHGMFYDGNHTYLIEPEENDTTQEDFHFHSVYKSRLFEFSLDDLPSEFQQVNITPSKFILKPRPKRSKRQLRRYPRNVEEETKYIELMIVNDHLMFKKHRLSVVHTNTYAKSVVNMADLIYKDQLKTRIVLVAMETWATDNKFAISENPLITLREFMKYRRDFIKEKSDAVHLFSGSQFESSRSGAAYIGGICSLLKGGGVNEFGKTDLMAVTLAQSLAHNIGIISDKRKLASGECKCEDTWSGCIMGDTGYYLPKKFTQCNIEEYHDFLNSGGGACLFNKPSKLLDPPECGNGFIETGEECDCGTPAECVLEGAECCKKCTLTQDSQCSDGLCCKKCKFQPMGTVCREAVNDCDIRETCSGNSSQCAPNIHKMDGYSCDGVQGICFGGRCKTRDRQCKYIWGQKVTASDKYCYEKLNIEGTEKGNCGKDKDTWIQCNKRDVLCGYLLCTNIGNIPRLGELDGEITSTLVVQQGRTLNCSGGHVKLEEDVDLGYVEDGTPCGPQMMCLEHRCLPVASFNFSTCLSSKEGTICSGNGVCSNELKCVCNRHWIGSDCNTYFPHNDDAKTGITLSGNGVAGTNIIIGIIAGTILVLALILGITAWGYKNYREQRQLPQGDYVKKPGDGDSFYSDIPPGVSTNSASSSKKRSNGLSHSWSERIPDTKHISDICENGRPRSNSWQGNLGGNKKKIRGKRFRPRSNSTETLSPAKSPSSSTGSIASSRKYPYPMPPLPDEDKKVNRQSARLWETSI

The experiment covers variants of B1. To be noted: with hck_human HCK.
Y882A: the “effect of a mutation on the interaction” value is listed as “decreasing interaction”.

For the origin of these results see IntAct's records for PubMed 17141806.
